Series [1] addresses T1, rLvc-Jun (Litopenaeus vannamei, UniProt A0A0A7W5M9 1-293).
T1 chain: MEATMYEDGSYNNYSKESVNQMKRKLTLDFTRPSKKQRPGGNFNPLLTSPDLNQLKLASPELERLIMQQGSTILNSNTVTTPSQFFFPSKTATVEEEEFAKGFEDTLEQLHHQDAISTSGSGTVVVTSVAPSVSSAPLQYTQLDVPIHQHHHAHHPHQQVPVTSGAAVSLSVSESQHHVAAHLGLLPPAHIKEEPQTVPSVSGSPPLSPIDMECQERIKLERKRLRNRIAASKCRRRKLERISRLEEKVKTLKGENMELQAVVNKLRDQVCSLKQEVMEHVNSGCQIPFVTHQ
Put plainly: competition; 10-, 50-, 100-fold excess over biotin IE1-AP-1-1; EMSA with biotin-labeled probes; buffer, salt, pH and temperature not in the material. The following applies: protein: recombinant; tags: GST tag removed with enterokinase; chain copies: 0; label: none; blunt.

For series [2], the target named is T1, rLvc-Jun. Put plainly: EMSA; EMSA with biotin-labeled probes; buffer, salt, pH and temperature not in the material. The following applies: protein: recombinant, tags: GST tag removed with enterokinase, chain copies: 0, blunt.

B1: Mut-unBio-IE1-AP-1-1 (dsDNA)
DNA 1: GAAAATCGCTGTTCCCATCCTGTTAAGGAATT
DNA 2: AATTCCTTAACAGGATGGGAACAGCGATTTTC
As to B1, the binding result in the series with rLvc-Jun [1] is “no binding”.

B2: 056-AP-1 probe (dsDNA)
DNA 1: GTACCAGATGTGAGTCAAACCGTTTCTGG
DNA 2: CCAGAAACGGTTTGACTCACATCTGGTAC
For B2, the binding result in the series with rLvc-Jun [2] (label: biotin) is “binds”.

B3: 249-AP-1 probe (dsDNA)
DNA 1: TAGGAATTTCGCTGACGTCAATAAACTGGTTT
DNA 2: AAACCAGTTTATTGACGTCAGCGAAATTCCTA
For B3, in the series with rLvc-Jun [2] (label: biotin), the binding result is “binds”.

B4: IE1-AP-1-1 probe (dsDNA)
DNA 1: GAAAATGGCTGTTTGAATCATGTTAAGGAATT
DNA 2: AATTCCTTAACATGATTCAAACAGCCATTTTC
B4: in the series with rLvc-Jun [2] (label: biotin (probe)), the binding result is listed as “binds”.

B5: 403-AP-1 probe (dsDNA)
DNA 1: ATTTCCAAGAATTTTGCTGACGTCAATGGACC
DNA 2: GGTCCATTGACGTCAGCAAAATTCTTGGAAAT
In the case of B5, in the series with rLvc-Jun [2] (label: biotin), the binding result was “binds”.

B6: IE1-AP-1-2 probe (dsDNA)
DNA 1: GGAATTTCCTTGTTACTCATTTATTCCTAGA
DNA 2: TCTAGGAATAAATGAGTAACAAGGAAATTCC
On to B6, for which, in the series with rLvc-Jun [2] (label: biotin (probe)), the binding result is “binds”.

For the origin of these results see paper PMC6941876, “White Spot Syndrome Virus Establishes a Novel IE1/JNK/c-Jun Positive Feedback Loop to Drive Replication”.
